Measurements as given in patent publication KR20230148435A.

Key:
[1] = target: HGF protein (hepatocyte growth factor) (UniProt P14210); assay: ELISA, HGF coated on plate, 24 h culture supernatant of YYB-103-1XX+YYB-101 scFv CAR-T cells
[2] = target: HGF protein (hepatocyte growth factor) (UniProt P14210); assay: ELISA, HGF coated on plate, YYB-101 at 1 ug/mL as positive control

UniProt P14210, sequence (P14210 32-728 limits assumed): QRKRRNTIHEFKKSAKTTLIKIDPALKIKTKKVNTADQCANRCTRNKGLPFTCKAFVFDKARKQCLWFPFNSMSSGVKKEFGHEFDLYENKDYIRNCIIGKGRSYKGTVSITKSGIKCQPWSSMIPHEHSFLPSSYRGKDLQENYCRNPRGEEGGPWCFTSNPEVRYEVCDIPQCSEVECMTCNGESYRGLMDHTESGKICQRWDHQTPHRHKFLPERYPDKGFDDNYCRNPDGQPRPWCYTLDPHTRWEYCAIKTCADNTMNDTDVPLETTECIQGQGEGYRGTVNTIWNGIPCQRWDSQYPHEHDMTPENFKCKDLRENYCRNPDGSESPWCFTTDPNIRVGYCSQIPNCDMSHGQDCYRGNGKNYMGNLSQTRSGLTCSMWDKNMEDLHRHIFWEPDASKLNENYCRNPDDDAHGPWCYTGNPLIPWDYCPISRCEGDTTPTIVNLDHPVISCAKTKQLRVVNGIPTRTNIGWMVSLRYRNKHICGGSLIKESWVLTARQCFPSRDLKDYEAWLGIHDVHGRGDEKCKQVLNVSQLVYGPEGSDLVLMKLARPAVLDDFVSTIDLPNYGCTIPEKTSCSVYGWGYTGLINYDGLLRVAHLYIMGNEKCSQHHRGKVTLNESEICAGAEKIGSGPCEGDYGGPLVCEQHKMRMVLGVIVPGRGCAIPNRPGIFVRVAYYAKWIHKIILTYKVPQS

OD, 450nm (HGF 결합) [1] [OD 450 nm] | OD, 450nm (HGF 결합) [2] [OD 450 nm] | Binder
2.63 |  | YYB-101 Single Chain Variable Fragment (scFv) (scFv) scFv: DIQMTQSPSSLSASVGDRVTITCRASQGISNILAWYQQKPGKAPKLLIYGASNLESGVPSRFSGSGSGTDFTLTISSLQPEDFATYYCQSGYYSRGATFGQGTKVEIKGGGGSGGGGSGGGGSEVQLVESGGGLVQPGGSLRLSCAASGFTFSTYYMSWVRQAPGKGLEWVAYIGTSSGTTYYADSVKGRFTISRDGSKNTLYLQMNSLRAEDTAVYYCARGLGRINLWGQGTLVTVSS
 | 3.02 | YYB-101 (HGF neutralising antibody) (antibody, human IgG4 S228P, kappa, V domains shown) VH: EVQLVESGGGLVQPGGSLRLSCAASGFTFSTYYMSWVRQAPGKGLEWVAYIGTSSGTTYYADSVKGRFTISRDGSKNTLYLQMNSLRAEDTAVYYCARGLGRINLWGQGTLVTVSS VL: DIQMTQSPSSLSASVGDRVTITCRASQGISNILAWYQQKPGKAPKLLIYGASNLESGVPSRFSGSGSGTDFTLTISSLQPEDFATYYCQSGYYSRGATFGQGTKVEIKR
